{"source": "patent US20150087596A1", "key": {"[1]": {"target": "human Nav1.2 (sodium channel protein type 2 subunit alpha) (human) (UniProt Q99250)", "experiment": "cell-based or functional assay"}, "[2]": {"target": "human Nav1.7 (sodium channel protein type 9 subunit alpha) (human) (UniProt Q15858)", "experiment": "cell-based or functional assay"}}, "data": [{"substance": "recombinant Huwentoxin-IV (peptide)", "values": [{"measurement": "IC50, veratridine-induced depolarization inhibition assay", "setting": "[1]", "result": 0.342, "unit": "µM"}, {"measurement": "IC50, veratridine-induced depolarization inhibition assay", "setting": "[2]", "result": 0.159, "unit": "µM"}, {"measurement": "ratio of IC50 for Nav1.2 to IC50 for Nav1.7", "setting": "[2]", "result": 2.14}]}]}
